Test results as given in publication doi:10.1101/2025.01.28.635281 (bioRxiv, 2025).

Molecular target: T1, Bacillus subtilis Sfp (Surfactin synthetase activating enzyme, 4'-phosphopantetheinyl transferase) (Bacillus subtilis, UniProt P39135 1-224)
T1 sequence (looked up): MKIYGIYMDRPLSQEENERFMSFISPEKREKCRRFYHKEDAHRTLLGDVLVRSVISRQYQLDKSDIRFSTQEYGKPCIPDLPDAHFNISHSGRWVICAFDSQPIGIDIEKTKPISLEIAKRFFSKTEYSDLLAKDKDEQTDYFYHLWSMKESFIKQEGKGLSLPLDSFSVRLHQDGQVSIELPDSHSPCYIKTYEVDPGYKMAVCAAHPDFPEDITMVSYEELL
Assay: NMR titration

binding result: binds
B1: S36A mutant of E. coli acyl carrier protein (natural protein)
chain: STIEERVKKIIGEQLGVKQEEVTNNASFVEDLGADALDTVELVMALEEEFDTEIPDEEAEKITTVQAAIDYINGHQA
